The source of these data is patent US20260199558A1, “INJECTABLE COMPOSITIONS FOR TREATING JOINT CONDITIONS” (Ohio State Innovation Foundation, priority 2022, published 2026).

Series [1] has as its system human cartilage endplate (CEP) cells. The series can be described thus: PDA nanoparticle / free bevacizumab dose effect on human cartilage endplate (CEP) cell viability. The series is classed as cell-based.
The test system of series [2] is human annulus fibrosus (AF) cells. The series can be described thus: PDA nanoparticle / free bevacizumab dose effect on human annulus fibrosus (AF) cell viability. It counts as cell-based. As to conditions: doses higher than 1 mg/mL.

For Bevacizumab, the values for the cell viability in series [1] (1 mg/mL dosing), in series [1] (up to 0.5 mg/mL) and in series [2] were 30%, > 80% and “approximately 30%”, respectively.
